Data taken from patent US20210355194A1 (TWIST BIOSCIENCE, published 2021).

B1: variant 5-59 (Fc fusion)
VHH: EVQLVESGGGLVQPGGSLRLSCAASGLTFSLYRMCWFRQAPGKEREEVSCISNIDGSTYYADSVKGRFTISADNSKNTAYLQMNSLKPEDTAVYYCAADLLGDSDYEPSSGFGWGQGTLVTVSS
B2: variant 6-1 (Fc fusion)
VHH: EVQLVESGGGLVQPGGSLRLSCAASGRTFGNYNMGWFRQAPGKEREFVATINSLGGTSYADSVKGRFTISADNSKNTAYLQMNSLKPEDTAVYYCARVDYYMDVWGQGTLVTVSS
B3: variant 5-63 (Fc fusion)
VHH: EVQLVESGGGLVQPGGSLRLSCAASGFSLDYYDMGWFRQAPGKEREFVAALGWSGGSTDYADSVKGRFTISADNSKNTAYLQMNSLKPEDTAVYYCAAGNGGRYGIVERWGQGTLVTVSS
B4: variant 5-56 (Fc fusion)
VHH: EVQLVESGGGLVQPGGSLRLSCAASGRTFSSNMGWFRQAPGKEREFVARIFGGDRTLYADSVKGRFTISADNSKNTAYLQMNSLKPEDTAVYYCADINGDWGQGTLVTVSS
B5: variant 5-65 (Fc fusion)
VHH: EVQLVESGGGLVQPGGSLRLSCAASGNIDRLYAMGWFRQAPGKEREGVAAIDSDGSTDYADSVKGRFTISADNSKNTAYLQMNSLKPEDTAVYYCAALIDYGLGFPIEWGQGTLVTVSS
B6: variant 6-5 (Fc fusion)
VHH: EVQLVESGGGLVQPGGSLRLSCAASGRTFTMGWFRQAPGKEREFVASTNSAGSTNYADSVNGRFTISADNSKNTAYLQMNSLKPEDTAVYYCTTVDQYFDYWGQGTLVTVSS
B7: variant 5-55 (Fc fusion)
VHH: EVQLVESGGGLVQPGGSLRLSCAASGIDVNRNAMGWFRQAPGKEREFVAAITWSGGWRYYADSVKGRFTISADNSKNTAYLQMNSLKPEDTAVYYCATTFGDAGIPDQYDFGWGQGTLVTVSS
B8: variant 6-6 (Fc fusion)
VHH: EVQLVESGGGLVQPGGSLRLSCAASGTTLDYYAMGWFRQAPGKERELVAAISWSGGSTAYADSVKGRFTISADNSKNTAYLQMNSLKPEDTAVYYCAREDYYDSSGYSWGQGTLVTVSS
B9: variant 5-47 (Fc fusion)
VHH: EVQLVESGGGLVQPGGSLRLSCAASGFTFGSYDMGWFRQAPGKEREFVTAINWSGARTAYADSVKGRFTISADNSKNTAYLQMNSLKPEDTAVYYCAARSVYSYEYNWGQGTLVTVSS
B10: variant 5-60 (Fc fusion)
VHH: EVQLVESGGGLVQPGGSLRLSCAASGRSFSSHRMGWFRQAPGKEREFVAAIMWSGSHRNYADSVKGRFTISADNSKNTAYLQMNSLKPEDTAVYYCAAIAYEEGVYRWDWGQGTLVTVSS
B11: variant 5-32 (Fc fusion)
VHH: EVQLVESGGGLVQPGGSLRLSCAASGFTPDNYAMGWFRQAPGKEREFVAALGWSGVTTYHYYADSVKGRFTISADNSKNTAYLQMNSLKPEDTAVYYCASDESDAANWGQGTLVTVSS
B12: variant 5-67 (Fc fusion)
VHH: EVQLVESGGGLVQPGGSLRLSCAASGFNVNDYAMGWFRQAPGKEREFVAGITSSVGVTNYADSVKGRFTISADNSKNTAYLQMNSLKPEDTAVYYCAADIFFVNWGRGTLVTVSS
B13: variant 6-19 (Fc fusion)
VHH: EVQLVESGGGLVQPGGSLRLSCAASGSILSIAVMGWFRQAPGKEREFVAAISPSAVTTYYADSVKGRFTISADNSKNTAYLQMNSLKPEDTAVYYCAIGYYDSSGYFDYWGQGTLVTVSS
B14: variant 6-14 (Fc fusion)
VHH: EVQLVESGGGLVQPGGSLRLSCAASGITFRFKAMGWFRQAPGKEREFVAAVSWDGRNTYYADSVKGRFTISADNSKNTAYLQMNSLKPEDTAVYYCASDYYYMDVWGQGTLVTVSS
B15: variant 6-18 (Fc fusion)
VHH: EVQLVESGGGLVQPGGSLRLSCAASGLTFRNYAMGWFRQAPGKEREFIAGMMWSGGTTTYADSVKGRFTISADNSKNTAYLQMNSLKPEDTAVYYCAREGYYYDSSGYLNYFDYWGQGTLVTVSS
B16: variant 5-37 (Fc fusion)
VHH: EVQLVESGGGLVQPGGSLRLSCAASGSTFSINAMGWFRQAPGKEREFVGGISRSGATTNYADSVKGRFTISADNSKNTAYLQMNSLKPEDTAVYYCAADGVPEYSDYASGPVWGQGTLVTVSS
notes: VHH-Fc
B17: variant 6-12 (Fc fusion)
VHH: EVQLVESGGGLVQPGGSLRLSCAASGSTYTTYSMGWFRQAPGKEREFVAAISGSENVTSYADSVKGRFTISADNSKNTAYLQMNSLKPEDTAVYYCARVDDYMDVWGQGTLVTVSS
B18: variant 6-4 (Fc fusion)
VHH: EVQLVESGGGLVQPGGSLRLSCAASGFTRDYYTMGWFRQAPGKEREFVAAISRSGSLTSYADSVKGRFTISADNSKNTAYLQMNSLKPEDTAVYYCANLAYYDSSGYYDYWGQGTLVTVSS
B19: variant 5-64 (Fc fusion)
VHH: EVQLVESGGGLVQPGGSLRLSCAASGTSISNRVMGWFRQAPGKERELVARIYTGGDTLYADSVKGRFTISADNSKNTAYLQMNSLKPEDTAVYYCAARKIYRSLSYYGDYDWGQGTLVTVSS
B20: variant 6-13 (Fc fusion)
VHH: EVQLVESGGGLVQPGGSLRLSCAASGLTFNDYAMGWFRQAPGKEREFVAHIPRSTYSPYYADSVKGRFTISADNSKNTAYLQMNSLKPEDTAVYYCAFLVGPQGVDHGAFDVWGQGTLVTVSS
B21: variant 6-22 (Fc fusion)
VHH: EVQLVESGGGLVQPGGSLRLSCAASGRTFSEVVMGWFRQAPGKEREFVATIHSSGSTSYADSVKGRFTISADNSKNTAYLQMNSLKPEDTAVYYCVRVTSDYSMDSWGQGTLVTVSS
B22: variant 5-42 (Fc fusion)
VHH: EVQLVESGGGLVQPGGSLRLSCAASGFTPDDYAMGWFRQAPGKEREFVASIGYSGRSNSYNYYADSVKGRFTISADNSKNTAYLQMNSLKPEDTAVYYCAIAHGSSTYNWGQGTLVTVSS
B23: variant 6-10 (Fc fusion)
VHH: EVQLVESGGGLVQPGGSLRLSCAASGSIASIHAMGWFRQAPGKEREFVAAISRSGGFGSYADSVKGRFTISADNSKNTAYLQMNSLKPEDTAVYYCARDDKYYDSSGYPAYFQHWGQGTLVTVSS
B24: variant 6-15 (Fc fusion)
VHH: EVQLVESGGGLVQPGGSLRLSCAASGSTVLINAMGWFRQAPGKEREFVAAVRWSDDYTYYADSVKGRFTISADNSKNTAYLQMNSLKPEDTAVYYCAKEGRAGSLDYWGQGTLVTVSS
B25: variant 5-52 (Fc fusion)
VHH: EVQLVESGGGLVQPGGSLRLSCAASGEKFSDHWMGWFRQAPGKEREFVATITFSGARTAYADSVKGRFTISADNSKNTAYLQMNSLKPEDTAVYYCAALIKPSSTDRIFEEWGQGTLVTVSS
B26: variant 5-49 (Fc fusion)
VHH: EVQLVESGGGLVQPGGSLRLSCAASGRTSTVNGMGWFRQAPGKEREFVASISQSGAATAYADSVKGRFTISADNSKNTAYLQMNSLKPEDTAVYYCAADRTYSYSSTGYYWGQGTLVTVSS
B27: variant 5-29 (Fc fusion)
VHH: EVQLVESGGGLVQPGGSLRLSCAASGFTFDDYPMGWFRQAPGKEREGVASVLRGGYTWYADSVKGRFTISADNSKNTAYLQMNSLKPEDTAVYYCAKDWATGLAWGQGTLVTVSS
B28: variant 6-20 (Fc fusion)
VHH: EVQLVESGGGLVQPGGSLRLSCAASGSTLPYHAMGWFRQAPGKEREFVAAITWNGASTSYADSVKGRFTISADNSKNTAYLQMNSLKPEDTAVYYCARDRYYDTSASYFESETWGQGTLVTVSS
notes: VHH-Fc
B29: variant 6-2 (Fc fusion)
VHH: EVQLVESGGGLVQPGGSLRLSCAASGFTMSSSWMGWFRQAPGKEREFVTVISGVGTSYADSVKGRFTISADNSKNTAYLQMNSLKPEDTAVYYCARGPDSSGYGFDYWGQGTLVTVSS
B30: variant 5-53 (Fc fusion)
VHH: EVQLVESGGGLVQPGGSLRLSCAASGLTVVPYAMGWFRQAPGKEREFVAAIRRSAVTNYADSVKGRFTIIADNSKNTAYLLMNSLKPEDTAVYYCAARRWGYHYWGQGTLVTVSS
B31: variant 5-68 (Fc fusion)
VHH: EVQLVESGGGLVQPGGSLRLSCAASGFTFDHYTMGWFRQAPGKEREFVAAISGSENVTSYADSVKGRFTISADNSKNTAYLQMNSLKPEDTAVYYCAAEPYIPVRTMRHMTFLTWGQGTLVTVSS
B32: variant 5-35 (Fc fusion)
VHH: EVQLVESGGGLVQPGGSLRLSCAASGPTFSIYAMGWFRQAPGKERELVAGISWNGGSTNYADSVKGRFTISADNSKNTAYLQMNSLKPEDTAVYYCALRRRFGGQEWGQGTLVTVSS
B33: variant 6-16 (Fc fusion)
VHH: EVQLVESGGGLVQPGGSLRLSCAASGFTFDDAAMGWFRQAPGKEREFVAHISWSGGSTYYADSVKGRFTISADNSKNTAYLQMNSLKPEDTAVYYCATFGATVTATNDAFDIWGQGTLVTVSS
B34: variant 6-17 (Fc fusion)
VHH: EVQLVESGGGLVQPGGSLRLSCAASGNTGSTGYMGWFRQAPGKEREMVAGVINDGSTVYADSVKGRFTISADNSKNTAYLQMNSLKPEDTAVYYCARLATSHQDGTGYLFDYWGQGTLVTVSS
B35: variant 6-23 (Fc fusion)
VHH: EVQLVESGGGLVQPGGSLRLSCAASGSIFSMNTMGWFRQAPGKEREFVALINRSGGGINYADSVKGRFTISADNSKNTAYLQMNSLKPEDTAVYYCVRLSSGYYDFDYWGQGTLVTVSS

What follows are binders tested against CV S-protein construct 6 trimer TP31001F (SARS-CoV-2, UniProt P0DTC2 14-1208) (assay: SPR).

Binder | Kd
B1 | 6.4 nM
B2 | 1.2 nM
B3 | 0.4 nM
B4 | 2.8 nM
B5 | 421 nM
B6 | 0.8 nM
B7 | 0.6 nM
B8 | 67.7 nM
B9 | 0.7 nM
B10 | 0.8 nM
B11 | 0.1 nM
B12 | 1 nM
B13 | 1 nM
B14 | 466 nM
B15 | 5.3 nM
B16 | 1.8 nM
B17 | 1.4 nM
B18 | 0.5 nM

Binder | Kd
B19 | 221 nM
B20 | 0.6 nM
B21 | 1.8 nM
B22 | 0.6 nM
B23 | 0.6 nM
B24 | 9050 nM
B25 | 0.9 nM
B26 | 3.4 nM
B27 | 1 nM
B28 | 0.3 nM
B29 | 1.2 nM
B30 | 684 nM
B31 | 4.8 nM
B32 | 16 nM
B33 | 2.2 nM
B34 | 0.6 nM
B35 | 0.3 nM
